Laboratory results published in the supplement of paper PMC9112550, “Optimization of the antimicrobial peptide Bac7 by deep mutational scanning” (BMC Biology, 2022).

Test system: Escherichia coli TOP10
Assay: shrunken log2 fold change of peptide-encoding DNA abundance (4.5 h post-induction vs induction); higher = less antimicrobial activity (less host growth inhibition)
Settings: time post-induction: 4.5 h; library: site-saturation at positions 5, 18, 19, 20
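Note: peptides expressed intracellularly from a pBAD plasmid library in pooled LB shake-flask culture, induced with 0.3% L-arabinose, DNA abundance read by NGS, three biological replicates, DESeq2 with apeglm shrinkage.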

Sequence	shrunken log2 fold change
RRIRYRPPRLPRPRPRPFHYPRP	-0.21
RRIRMRPPRLPRPRPRPWKIPRP	-0.0114
RRIRHRPPRLPRPRPRPFIPPRP	0.0413
RRIRDRPPRLPRPRPRPKQEPRP	0.00491
RRIRKRPPRLPRPRPRPSTVPRP	-0.159
RRIRGRPPRLPRPRPRPSQFPRP	0.192
RRIRSRPPRLPRPRPRPNMEPRP	-0.154
RRIRIRPPRLPRPRPRPACYPRP	-0.472
RRIRKRPPRLPRPRPRPVNVPRP	0.0147
RRIRPRPPRLPRPRPRPWCTPRP	-0.218
RRIRWRPPRLPRPRPRPYGVPRP	0.00576
RRIRARPPRLPRPRPRPCFFPRP	0.145
RRIRCRPPRLPRPRPRPHFIPRP	-0.528
RRIRTRPPRLPRPRPRPHWDPRP	-0.245
RRIRYRPPRLPRPRPRPWYGPRP	-0.258
RRIRWRPPRLPRPRPRPQKEPRP	0.0282
RRIRRRPPRLPRPRPRPKTRPRP	2.44
RRIRFRPPRLPRPRPRPCMGPRP	-0.49
RRIRWRPPRLPRPRPRPPCVPRP	0.301
RRIRERPPRLPRPRPRPHMWPRP	-0.0491
RRIRKRPPRLPRPRPRPQPEPRP	0.7
RRIRVRPPRLPRPRPRPAYVPRP	-0.17
RRIRMRPPRLPRPRPRPEGMPRP	2.24
RRIRCRPPRLPRPRPRPMTDPRP	-0.0858
RRIRCRPPRLPRPRPRPYPVPRP	-0.441

Sequence	shrunken log2 fold change
RRIRTRPPRLPRPRPRPHQCPRP	0.021
RRIRIRPPRLPRPRPRPFWIPRP	-0.193
RRIRSRPPRLPRPRPRPKTAPRP	0.097
RRIRDRPPRLPRPRPRPENFPRP	0.043
RRIRQRPPRLPRPRPRPLLCPRP	0.126
RRIRIRPPRLPRPRPRPNYHPRP	-0.733
RRIRDRPPRLPRPRPRPQNGPRP	-0.0018
RRIRHRPPRLPRPRPRPHIRPRP	-0.0193
RRIRMRPPRLPRPRPRPQQHPRP	0.0483
RRIRFRPPRLPRPRPRPAHKPRP	0.225
RRIRKRPPRLPRPRPRPPQVPRP	0.00672
RRIRPRPPRLPRPRPRPFIGPRP	0.108
RRIRIRPPRLPRPRPRPFFDPRP	-0.417
RRIRMRPPRLPRPRPRPAAHPRP	0.531
RRIRQRPPRLPRPRPRPVYLPRP	-0.206
RRIRFRPPRLPRPRPRPLQFPRP	0.0763
RRIRSRPPRLPRPRPRPKSFPRP	0.172
RRIRFRPPRLPRPRPRPHMQPRP	-0.725
RRIRARPPRLPRPRPRPDSSPRP	0.371
RRIRMRPPRLPRPRPRPCDDPRP	0.553
RRIRSRPPRLPRPRPRPTGDPRP	0.353
RRIRVRPPRLPRPRPRPHPTPRP	0.23
RRIRHRPPRLPRPRPRPEFNPRP	0.0664
RRIRHRPPRLPRPRPRPKFYPRP	-0.148
RRIRERPPRLPRPRPRPLIFPRP	-0.406

Sequence	shrunken log2 fold change
RRIRKRPPRLPRPRPRPWMCPRP	-0.316
RRIRCRPPRLPRPRPRPKKSPRP	-0.0331
RRIRYRPPRLPRPRPRPNCRPRP	-0.134
RRIRTRPPRLPRPRPRPFTEPRP	-0.21
RRIRMRPPRLPRPRPRPKAEPRP	3.05
RRIRVRPPRLPRPRPRPYCQPRP	-1.64
RRIRKRPPRLPRPRPRPCWQPRP	0.154
RRIRYRPPRLPRPRPRPMNQPRP	-0.383
RRIRNRPPRLPRPRPRPFGVPRP	0.125
RRIRLRPPRLPRPRPRPFVHPRP	-0.308
RRIRLRPPRLPRPRPRPFKFPRP	-0.202
RRIRTRPPRLPRPRPRPILLPRP	-0.658
RRIRPRPPRLPRPRPRPGMAPRP	0.204
RRIRPRPPRLPRPRPRPFMTPRP	-0.511
RRIRWRPPRLPRPRPRPFHVPRP	-0.0106
RRIRARPPRLPRPRPRPSEYPRP	-0.264
RRIRHRPPRLPRPRPRPKNNPRP	-0.74
RRIRNRPPRLPRPRPRPRRPPRP	0.3
RRIRERPPRLPRPRPRPNYHPRP	-0.626
RRIRNRPPRLPRPRPRPSQIPRP	-0.664
RRIRGRPPRLPRPRPRPKLRPRP	0.675
RRIRMRPPRLPRPRPRPKVSPRP	0.0176
RRIRCRPPRLPRPRPRPFIKPRP	-0.715
RRIRSRPPRLPRPRPRPPLTPRP	0.367
RRIRIRPPRLPRPRPRPLELPRP	-0.461
